Test results as given in PMC8809517, “Cofactor-independent RNA editing by a synthetic S-type PPR protein”.

T1: GFP-9S library array, motif 4 ND D124M (synthetic construct, D124M)
T1 chain: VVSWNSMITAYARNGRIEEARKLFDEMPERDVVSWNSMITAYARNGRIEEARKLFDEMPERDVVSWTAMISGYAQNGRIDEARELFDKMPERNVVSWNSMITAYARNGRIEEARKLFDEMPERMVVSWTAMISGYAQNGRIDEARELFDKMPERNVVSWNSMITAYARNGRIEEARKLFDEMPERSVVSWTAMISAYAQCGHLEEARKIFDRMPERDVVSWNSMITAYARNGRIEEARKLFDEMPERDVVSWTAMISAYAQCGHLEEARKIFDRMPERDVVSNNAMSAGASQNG

T2: 9S-E2 (synthetic construct)
T2 chain: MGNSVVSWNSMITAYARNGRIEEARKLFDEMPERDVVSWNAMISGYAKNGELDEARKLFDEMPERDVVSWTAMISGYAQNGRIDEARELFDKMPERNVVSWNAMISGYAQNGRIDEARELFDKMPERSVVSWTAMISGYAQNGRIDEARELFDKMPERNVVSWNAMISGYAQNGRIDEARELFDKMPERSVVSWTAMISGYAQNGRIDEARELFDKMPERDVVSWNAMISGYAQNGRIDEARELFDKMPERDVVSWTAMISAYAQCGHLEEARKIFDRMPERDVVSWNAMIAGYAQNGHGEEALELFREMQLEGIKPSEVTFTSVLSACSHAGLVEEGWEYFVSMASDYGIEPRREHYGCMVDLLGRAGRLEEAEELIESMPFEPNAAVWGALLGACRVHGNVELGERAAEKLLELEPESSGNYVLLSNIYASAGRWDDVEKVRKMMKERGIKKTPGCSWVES

T3: 9S-S2 PPR (synthetic construct)
T3 chain: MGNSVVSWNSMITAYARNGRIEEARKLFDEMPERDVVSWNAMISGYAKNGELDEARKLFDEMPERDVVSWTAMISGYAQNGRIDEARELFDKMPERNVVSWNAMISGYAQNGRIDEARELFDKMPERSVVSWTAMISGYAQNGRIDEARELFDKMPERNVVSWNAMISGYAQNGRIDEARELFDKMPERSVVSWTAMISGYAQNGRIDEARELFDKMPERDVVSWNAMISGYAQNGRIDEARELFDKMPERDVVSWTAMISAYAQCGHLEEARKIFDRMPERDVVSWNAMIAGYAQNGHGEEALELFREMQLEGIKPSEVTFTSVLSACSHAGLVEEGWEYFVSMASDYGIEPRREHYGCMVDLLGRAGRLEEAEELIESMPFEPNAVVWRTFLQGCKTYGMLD

T4: 9P-S2 (synthetic construct)
T4 chain: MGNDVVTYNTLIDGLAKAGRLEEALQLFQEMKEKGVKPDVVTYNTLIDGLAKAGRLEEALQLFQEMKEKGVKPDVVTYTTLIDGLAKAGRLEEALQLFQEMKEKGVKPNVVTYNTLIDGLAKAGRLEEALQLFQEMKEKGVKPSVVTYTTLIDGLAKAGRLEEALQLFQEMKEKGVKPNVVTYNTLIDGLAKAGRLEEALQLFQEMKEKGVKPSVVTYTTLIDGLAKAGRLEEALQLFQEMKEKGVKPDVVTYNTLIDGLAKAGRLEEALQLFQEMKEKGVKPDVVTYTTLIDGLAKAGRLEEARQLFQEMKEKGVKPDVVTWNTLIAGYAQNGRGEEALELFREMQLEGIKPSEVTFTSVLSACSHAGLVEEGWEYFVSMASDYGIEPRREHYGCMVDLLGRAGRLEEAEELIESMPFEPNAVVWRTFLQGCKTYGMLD

T5: 9S (synthetic construct)
T5 chain: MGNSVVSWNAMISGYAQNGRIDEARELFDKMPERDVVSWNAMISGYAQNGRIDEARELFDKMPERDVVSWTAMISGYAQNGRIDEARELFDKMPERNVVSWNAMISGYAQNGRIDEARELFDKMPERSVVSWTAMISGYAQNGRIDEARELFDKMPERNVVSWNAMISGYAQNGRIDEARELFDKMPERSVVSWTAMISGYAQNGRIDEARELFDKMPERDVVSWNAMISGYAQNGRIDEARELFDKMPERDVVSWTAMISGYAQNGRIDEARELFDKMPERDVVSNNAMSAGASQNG


Experiments:
[1] = target: T1, GFP-9S library array, motif 4 ND D124M; assay: high-throughput RNA pulldown from lysate on Ni-NTA beads; HRP: 50 mM Tris pH 8, 150 mM NaCl, 1 mM beta-mercaptoethanol, 50 ug/ml BSA, 3 ug/ml yeast RNA, 0.5% heparin; ITC and FP: Tris pH 8, 200 mM KCl, 5% glycerol; MST: 50 mM Tris pH 8, 200 mM NaCl, 1 mM DTT, BSA, heparin, 0.05% Tween 20; conditions: tags: N-terminal His-eGFP
9S-E2 = target: T2, 9S-E2; assay: microscale thermophoresis; HRP: 50 mM Tris pH 8, 150 mM NaCl, 1 mM beta-mercaptoethanol, 50 ug/ml BSA, 3 ug/ml yeast RNA, 0.5% heparin; ITC and FP: Tris pH 8, 200 mM KCl, 5% glycerol; MST: 50 mM Tris pH 8, 200 mM NaCl, 1 mM DTT, BSA, heparin, 0.05% Tween 20; conditions: protein: recombinant; tags: N-terminal TRX-His; label: 5' Cy5
9S-S2 PPR = target: T3, 9S-S2 PPR; assay: high-throughput RNA pulldown on Ni-NTA beads; HRP: 50 mM Tris pH 8, 150 mM NaCl, 1 mM beta-mercaptoethanol, 50 ug/ml BSA, 3 ug/ml yeast RNA, 0.5% heparin; ITC and FP: Tris pH 8, 200 mM KCl, 5% glycerol; MST: 50 mM Tris pH 8, 200 mM NaCl, 1 mM DTT, BSA, heparin, 0.05% Tween 20; conditions: protein: recombinant; tags: N-terminal TRX-His; label: 5' Cy5
9P-S2 = target: T4, 9P-S2; assay: as above; conditions: protein: recombinant; tags: N-terminal TRX-His; label: 5' Cy5
9S = target: T5, 9S; assay: as above; conditions: protein: recombinant; tags: N-terminal His-eGFP; label: 5' Cy5

| Binder | Kd ([1]; label: 5' Cy5) [nM] | Kd ([1]; label: 5' IRDye 800CW) [nM] | also measured |
| --- | --- | --- | --- |
| AUUACACGUGA (ssRNA) [Cy5-rpoA] | 71.1 |  | Kd (9S-E2): 6.8 nM; Kd (9S-S2 PPR): 6.4 nM; Kd (9P-S2): 68 nM; Kd (9S): 12 nM |
| AUUAUACGUGA (ssRNA) [IR-rpoA-U] |  | 21.2 |  |
| AUUAAACGUGA (ssRNA) [IR-rpoA-A] |  | 78.1 |  |
| AUUAGACGUGA (ssRNA) [Cy5-rpoA-G] | 139 |  |  |
